# According to article PMC11937253:
# Target: MPXV B6R ectodomain, His-tagged recombinant protein (mpox virus (MPXV), isolate MPXV_USA_2022_MA001)
# Assay: SPR; BiaCore T200; […]; 1:1 binding model
Binder,Kd [µM],koff [s⁻¹],kon [M⁻¹ s⁻¹]
Nanobody B6R-06 (VHH) VHH: QVQLVESGGGLVQAGGSLRLSCAASGRIFRKRNMGWYRQAPGKEREFVASISRGSNTYYADSVKGRFTISRDNAKNTVYLQMNSLKPEDTAVYYCAVWRHRTFVRWKHFDYWGQGTQVTVSS,0.0121,0.0056,462000
Nanobody B6R-04 (VHH) VHH: QVQLVESGGGLVQAGGSLRLSCAASGRIFASDRMGWYRQAPGKEREFVAAISYGSRTNYADSVKGRFTISRDNAKNTVYLQMNSLKPEDTAVYYCAVWAFHRSWKERSHWHDYWGQGTQVTVSS,1.03,0.0412,39900
Nanobody B6R-05 (VHH) VHH: QVQLVESGGGLVQAGGSLRLSCAASGRIFHPGAMGWYRQAPGKEREFVAGISSGGNTYYADSVKGRFTISRDNAKNTVYLQMNSLKPEDTAVYYCAAPFRWVKATGRFLDYWGQGTQVTVSS,95.4,0.0008,8.9
Nanobody B6R-03 (VHH) VHH: QVQLVESGGGLVQAGGSLRLSCAASGRILHRKGMGWYRQAPGKEREFVAAINKGGSTNYADSVKGRFTISRDNAKNTVYLQMNSLKPEDTAVYYCAVGKKRRTWINRHYDYWGQGTQVTVSS,3.18,0.349,110000
Nanobody B6R-02 (VHH) VHH: QVQLVESGGGLVQAGGSLRLSCAASGRIFRRNVMGWYRQAPGKEREFVAAITKGGYTNYADSVKGRFTISRDNAKNTVYLQMNSLKPEDTAVYYCAARYFHRKRHKWRHDYWGQGTQVTVSS,14,0.0029,209

# Target: MPXV E8L ectodomain, His-tagged recombinant protein (mpox virus (MPXV), isolate MPXV_USA_2022_MA001)
# Assay: SPR; BiaCore T200; […]; 1:1 binding model
Binder,Kd [nM],koff [s⁻¹],kon [M⁻¹ s⁻¹]
Nanobody E8L-05 (VHH) VHH: QVQLVESGGGLVQAGGSLRLSCAASGRIFDTVEMGWYRQAPGKEREFVASISGGDSTYYADSVKGRFTISRDNAKNTVYLQMNSLKPEDTAVYYCAARSARNRWSIIFYDYWGQGTQVTVSS,2.39,0.002,838000
Nanobody E8L-07 (VHH) VHH: QVQLVESGGGLVQAGGSLRLSCAASGSIFKRYKMGWYRQAPGKEREFVACINKGGDTNYADSVKGRFTISRDNAKNTVYLQMNSLKPEDTAVYYCAVKRHAKAYGEFFYDYWGQGTQVTVSS,3.17,0.0018,539000
Nanobody E8L-06 (VHH) VHH: QVQLVESGGGLVQAGGSLRLSCAASGFIFTSTRMGWYRQAPGKEREFVAGISIGGNTNYADSVKGRFTISRDNAKNTVYLQMNSLKPEDTAVYYCAARYYYFHNHNFAYDYWGQGTQVTVSS,11.6,0.0105,910000
Nanobody E8L-01 (VHH) VHH: QVQLVESGGGLVQAGGSLRLSCAASGRIFINRVMGWYRQAPGKEREFVAGIAQGGSTNYADSVKGRFTISRDNAKNTVYLQMNSLKPEDTAVYYCAAKFWNWHHDHRGYDYWGQGTQVTVSS,0.66,0.0029,4.35e+06
Nanobody E8L-04 (VHH) VHH: QVQLVESGGGLVQAGGSLRLSCAASGRIFGRRAMGWYRQAPGKEREFVAAISNGFNTNYADSVKGRFTISRDNAKNTVYLQMNSLKPEDTAVYYCAATVSRRGEQTFFYDYWGQGTQVTVSS,1.77,0.0015,876000
Nanobody E8L-03 (VHH) VHH: QVQLVESGGGLVQAGGSLRLSCAASGFIFTTRGMGWYRQAPGKEREFVACIFPGSSTNYADSVKGRFTISRDNAKNTVYLQMNSLKPEDTAVYYCAAEGPYRGFNFKKNLYDYWGQGTQVTVSS,5.81,0.0034,662000
Nanobody E8L-02 (VHH) VHH: QVQLVESGGGLVQAGGSLRLSCAASGRIFTDSYMGWYRQAPGKEREFVACITTGSSTYYADSVKGRFTISRDNAKNTVYLQMNSLKPEDTAVYYCAARFRYTVQHWFHTKFDYWGQGTQVTVSS,1.69,0.0003,184000
Nanobody E8L-08 (VHH) VHH: QVQLVESGGGLVQAGGSLRLSCAASGFIFTNWGMGWYRQAPGKERELVAAITSGSSTNYADSVKGRFTISRDNAKNTVYLQMNSLKPEDTAVYYCAAIRGFSLIYQFFAQYDYWGQGTQVTVSS,3.11,0.002,646000

# Target: MPXV H3L ectodomain, His-tagged recombinant protein (mpox virus (MPXV), isolate MPXV_USA_2022_MA001)
# Assay: SPR; BiaCore T200; […]; 1:1 binding model
Binder,Kd [nM],koff [s⁻¹],kon [M⁻¹ s⁻¹]
Nanobody H3L-03 (VHH) VHH: QVQLVESGGGLVQAGGSLRLSCAASGRIFFFAKMGWYRQAPGKEREFVASIVYGDITYYADSVKGRFTISRDNAKNTVYLQMNSLKPEDTAVYYCAAKPHWPSRRPRRYDYWGQGTQVTVSS,35.2,0.0092,261000
Nanobody H3L-01 (VHH) VHH: QVQLVESGGGLVQAGGSLRLSCAASGRIFWWVPMGWYRQAPGKEREFVAGISKGDSTYYADSVKGRFTISRNNAKNTVYLQMNSLKPEDTAVYYCAANPRNNRFRAGVYDYWGQGTQVTVSS,11.2,0.0209,1.87e+06
Nanobody H3L-02 (VHH) VHH: QVQLVESGGGLVQAGGSLRLSCAASGRIFLHRIMGWYRQAPGKERELVASISRGDNTYYADSVKGRFTISRDNAKNTVYLQMNSLKPEDTAVYYCAAGTGRHKDDHKDYDYWGQGTQVTVSS,94.8,0.0725,765000

# Target: MPXV M1R ectodomain, His-tagged recombinant protein (mpox virus (MPXV), isolate MPXV_USA_2022_MA001)
# Assay: SPR; BiaCore T200; […]; 1:1 binding model
Binder,Kd [nM],koff [s⁻¹],kon [M⁻¹ s⁻¹]
Nanobody M1R-03 (VHH) VHH: QVQLVESGGGLVQAGGSLRLSCAASGSIFETGAMGWYRQAPGKEREFVAAITGWDTNYADSVKGRFTISRDNAKNTVYLQMNSLKPEDTAVYYCAASHWISFYWEHYHPYDYWGQGTQVTVSS,24.9,0.0401,1.61e+06
Nanobody M1R-05 (VHH) VHH: QVQLVESGGGLVQAGGSLRLSCAASGFIFYAWHMGWYRQAPGKERELVASIAYGGDTNYADSVKGRFTISRDNAKNTVYLQMNSLKPEDTAVYYCAAVHFTHHKWDQEYDYWGQGTQVTVSS,85.9,0.0037,42800
Nanobody M1R-02 (VHH) VHH: QVQLVESGGGLVQAGGSLRLSCAASGFIFDHWEMGWYRQAPGKEREFVASISAGLSTNYADSVKGRFTISRDNAKNTVYLQMNSLKPEDTAVYYCAARHFTAVFWKNSYDYWGQGTQVTVSS,23.5,0.0016,68300
